The data set concerns the molecule itself. Put plainly: nondenaturing SDS-PAGE or size exclusion chromatography (self-association). For orientation: In gel filtration, larger molecules generally elute earlier.

Protocol: For nondenaturing SDS-PAGE, one μg of each purified DsRed variant or wild-type DsRed was mixed with SDS-containing sample buffer on ice and immediately electrophoresed at 4° C. in a 10% polyacrylamide gel, followed by staining with Coomassie Blue. Additional aliquots of wild-type DsRed and DsRed variants were denatured by boiling prior to electrophoresis.

B1: DsRed.M1 (other)
chain: MDNTEDVIKEFMQFKVRMEGSVNGHYFEIEGEGEGKPYEGTQTAKLQVTKGGPLPFAWDILSPQFQYGSKAYVKHPADIPDYMKLSFPEGFTWERSMNFEDGGVVEVQQDSSLQDGTFIYKVKFKGVNFPADGPVMQKKTAGWEPSTEKLYPQDGVLKGEISHALKLKDGGHYTCDFKTVYKAKKPVQLPGNHYVDSKLDITNHNEDYTVVEQYEHAEARHSGSQ
notes: Purified protein tested for its oligomeric state; also called monomeric DsRed variant; red fluorescent DsRed monomer
With B1, the binding result is given as “no binding”.
